Reference: the Immune Epitope Database (IEDB)

Key:
[1] = biological target: HLA-B*48:01; assay: IEDB peptide-MHC binding, purified MHC/direct/fluorescence; filed as Kd, often an IC50 or EC50 that approximates it; ≥ and ≤ were set here for values at or beyond the usual limits of such assays
[2] = biological target: HLA-A*31:01; assay: as above
[3] = biological target: HLA-B*40:01; assay: as above
[4] = biological target: HLA-B*27:05; assay: as above
[5] = biological target: HLA-A*02:19; assay: as above; conditions: source organism: Vibrio vulnificus CMCP6
[6] = biological target: HLA-B*08:01; assay: as above
[7] = biological target: HLA-A*69:01; assay: as above
[8] = biological target: HLA-B*07:02; assay: as above
[9] = biological target: HLA-B*18:01; assay: as above
[10] = biological target: HLA-A*01:01; assay: as above
[11] = biological target: HLA-B*51:01; assay: as above; conditions: source organism: Vibrio vulnificus CMCP6
[12] = biological target: HLA-A*03:01; assay: as above
[13] = biological target: HLA-B*15:09; assay: as above
[14] = biological target: HLA-B*58:01; assay: as above
[15] = biological target: HLA-A*26:02; assay: as above
[16] = biological target: HLA-A*29:02; assay: as above; conditions: source organism: Vibrio vulnificus CMCP6
[17] = biological target: HLA-A*02:12; assay: as above; conditions: source organism: Vibrio vulnificus CMCP6
[18] = biological target: HLA-B*15:17; assay: IEDB peptide-MHC binding, purified MHC/competitive/fluorescence; filed as Kd, often an IC50 or EC50 that approximates it; ≥ and ≤ were set here for values at or beyond the usual limits of such assays
[19] = biological target: HLA-A*02:01; assay: as above
[20] = biological target: HLA-B*15:01; assay: as above
[21] = biological target: HLA-A*30:01; assay: as above; conditions: source organism: Vibrio cholerae V52
[22] = biological target: HLA-B*39:01; assay: as above
[23] = biological target: HLA-A*02:06; assay: as above; conditions: source organism: Vibrio cholerae V52
[24] = biological target: HLA-A*11:01; assay: as above; conditions: source organism: Vibrio cholerae V52
[25] = biological target: HLA-B*57:01; assay: as above
[26] = biological target: HLA-A*68:02; assay: as above; conditions: source organism: Human immunodeficiency virus 1
[27] = biological target: HLA-A*02:03; assay: as above; conditions: source organism: Human immunodeficiency virus 1
[28] = biological target: HLA-C*08:02; assay: IEDB peptide-MHC binding, purified MHC/direct/fluorescence; filed as Kd, often an IC50 or EC50 that approximates it; ≥ and ≤ were set here for values at or beyond the usual limits of such assays
[29] = biological target: HLA-B*27:03; assay: IEDB peptide-MHC binding, purified MHC/competitive/fluorescence; filed as Kd, often an IC50 or EC50 that approximates it; ≥ and ≤ were set here for values at or beyond the usual limits of such assays
[30] = biological target: HLA-B*46:01; assay: as above
[31] = biological target: HLA-B*18:01; assay: as above
[32] = biological target: HLA-B*51:01; assay: as above
[33] = biological target: HLA-A*26:01; assay: as above
[34] = biological target: HLA-A*69:01; assay: as above; conditions: source organism: Mus musculus
[35] = biological target: HLA-A*02:01; assay: IEDB peptide-MHC binding, purified MHC/competitive/radioactivity; ≥ and ≤ were set here for values at or beyond the usual limits of such assays
[36] = biological target: HLA-A*26:01; assay: IEDB peptide-MHC binding, purified MHC/direct/fluorescence; filed as Kd, often an IC50 or EC50 that approximates it; ≥ and ≤ were set here for values at or beyond the usual limits of such assays
[37] = biological target: HLA-B*15:17; assay: as above; conditions: source organism: Burkholderia mallei
[38] = biological target: HLA-A*02:01; assay: as above; conditions: source organism: Burkholderia mallei
[39] = biological target: HLA-B*15:01; assay: as above; conditions: source organism: Burkholderia mallei
[40] = biological target: HLA-B*39:01; assay: as above; conditions: source organism: Burkholderia mallei ATCC 23344
[41] = biological target: HLA-B*44:02; assay: as above; conditions: source organism: Burkholderia mallei
[42] = biological target: HLA-A*68:02; assay: as above; conditions: source organism: Burkholderia mallei
[43] = biological target: HLA-A*11:01; assay: as above; conditions: source organism: Burkholderia mallei
[44] = biological target: HLA-B*57:01; assay: as above; conditions: source organism: Burkholderia mallei
[45] = source organism: Vibrio cholerae
[46] = source organism: Vibrio vulnificus CMCP6
[47] = source organism: Vibrio cholerae V52
[48] = source organism: Burkholderia mallei
[49] = source organism: Burkholderia mallei ATCC 23344

## TTILGLLPM
[1]; [45]
  Kd: ≥ 20 µM
[2]; [45]
  Kd: ≥ 20 µM
[3]; [45]
  Kd: 0.189 µM
[4]; [45]
  Kd: ≥ 20 µM
[5]
  Kd: ≥ 20 µM
[6]; [46]
  Kd: ≥ 20 µM
[7]; [45]
  Kd: 0.0016 µM
[8]; [46]
  Kd: ≥ 20 µM
[9]; [45]
  Kd: 0.012 µM
[10]; [45]
  Kd: ≥ 20 µM
[11]
  Kd: ≥ 20 µM
[12]; [45]
  Kd: ≥ 20 µM
[13]; [46]
  Kd: 7.7 µM
[14]; [46]
  Kd: 0.329 µM
[15]; [46]
  Kd: ≤ 0.001 µM
[16]
  Kd: 0.016 µM
[17]
  Kd: ≥ 20 µM
[18]; [47]
  Kd: 0.0387 µM
[19]; [47]
  Kd: ≥ 20 µM
[20]; [47]
  Kd: 0.308 µM
[21]
  Kd: 0.677 µM
[22]; [47]
  Kd: 0.618 µM
[23]
  Kd: 0.0057 µM
[24]
  Kd: ≥ 20 µM
[25]; [47]
  Kd: 3.58 µM

## EELKSLYNTI
[26]
  Kd: 1.78 µM
[27]
  Kd: ≥ 20 µM

## WTDLFDNKV
[28]; source organism: Homo sapiens
  Kd: 0.254 µM
[10]; source organism: Homo sapiens
  Kd: 0.002 µM
[18]; source organism: Homo sapiens
  Kd: ≥ 20 µM
[29]; source organism: Homo sapiens
  Kd: ≥ 20 µM
[19]; source organism: Homo sapiens
  Kd: ≥ 20 µM
[20]; source organism: Homo sapiens
  Kd: ≥ 20 µM
[30]; source organism: Homo sapiens
  Kd: ≥ 20 µM
[31]; source organism: Homo sapiens
  Kd: ≥ 20 µM
[22]; source organism: Homo sapiens
  Kd: ≥ 20 µM
[32]; source organism: Homo sapiens
  Kd: ≥ 20 µM
[33]; source organism: Homo sapiens
  Kd: ≥ 20 µM
[25]; source organism: Homo sapiens
  Kd: ≥ 20 µM

## LVDENQSWY
[28]; source organism: Mus musculus
  Kd: ≥ 20 µM
[29]; source organism: Mus musculus
  Kd: ≥ 20 µM
[19]; source organism: Mus musculus
  Kd: ≥ 20 µM
[34]
  Kd: ≥ 20 µM
[30]; source organism: Mus musculus
  Kd: ≥ 20 µM
[31]; source organism: Mus musculus
  Kd: ≥ 20 µM
[22]; source organism: Mus musculus
  Kd: ≥ 20 µM
[32]; source organism: Mus musculus
  Kd: ≥ 20 µM
[33]; source organism: Mus musculus
  Kd: ≥ 20 µM
[25]; source organism: Mus musculus
  Kd: ≥ 20 µM

## ILCGTCLIV
[35]; source organism: Homo sapiens
  IC50: 0.192 µM

## TTAKAMEQM
[36]; source organism: Influenza A virus (A/shorebird/Delaware Bay/277/2000(H9N7))
  Kd: 0.0489 µM
[15]; source organism: Influenza A virus(A/swine/Shandong/fZC/2003(H9N2))
  Kd: 0.002 µM

## RLPRIFCSC
[35]; source organism: Homo sapiens
  IC50: 1.98 µM

## FEIGNGDAG
[37]
  Kd: ≥ 20 µM
[1]; [48]
  Kd: ≥ 20 µM
[2]; [48]
  Kd: ≥ 20 µM
[3]; [48]
  Kd: ≥ 20 µM
[4]; [48]
  Kd: ≥ 20 µM
[38]
  Kd: ≥ 20 µM
[39]
  Kd: ≥ 20 µM
[6]; [49]
  Kd: ≥ 20 µM
[7]; [48]
  Kd: ≥ 20 µM
[8]; [48]
  Kd: ≥ 20 µM
[9]; [48]
  Kd: ≥ 20 µM
[40]
  Kd: ≥ 20 µM
[41]
  Kd: ≥ 20 µM
[42]
  Kd: ≥ 20 µM
[10]; [48]
  Kd: ≥ 20 µM
[43]
  Kd: ≥ 20 µM
[36]; [49]
  Kd: ≥ 20 µM
[12]; [48]
  Kd: ≥ 20 µM
[44]
  Kd: ≥ 20 µM
[13]; [49]
  Kd: ≥ 20 µM
[14]; [48]
  Kd: ≥ 20 µM

## IMDKNIIL
[35]; source organism: Influenza A virus (A/Puerto Rico/8/1934(H1N1))
  IC50: 21 µM

## SLSHYFTLV
[35]; source organism: Trypanosoma cruzi
  IC50: 0.0016 µM
